Legend:
[1] = Dynamic light scattering analysis of hydrodynamic size; assay type: physicochemical; details: DLS, dispersed in water
Method: In step 1), 2 μL of each complementary oligonucleotide from a 100 μM stock is added into the hybridization buffer TAE/Mg^2+ to have a final volume of 200 μL. The newly prepared DNA origami carrier is characterized using AFM, agarose gel electrophoresis and dynamic light scattering analysis.
For DLS measurements, DNA tiles are dispersed in water. In water, DNA tiles are solvated by water molecules. This hydration layer causes grater diameter than theoretical size of the structure. Hydrodynamic size of DNA tiles was determined as approximately 50 nm, which is in good agreement with AFM results.

MDA-MB-231 cell line = experiment: Cytotoxicity of the DNA origami carrier (cell viability); assay type: cell-based; details: MDA-MB-231, concentration range 50-400 nM
Method: The cytotoxicity assessments of the DNA origami structure were carried out on MDA-MB-231 cell line at a concentration range of 50-400 nM. According to the cell viability results of the experiment, the DNA-tiles are non-toxic to the cells.

[2] = Atomic force microscopy (AFM) size of DNA tile on mica; assay type: physicochemical; details: dried on mica, non-contact mode; theoretical value 40 nm
Excerpt: The DNA tile samples taken from the hybridization media were dropped on mica surface for deposition and subsequently washed with deionized water. When the dropped DNA samples on mica were dried, images acquired at non-contact mode. Considering the distance between the base pairs in the DNA as 0.34 nm and the number of the base pairs in the DNA tile structure from one end to another, […], the theoretical length of an assembled DNA tile can be estimated as 40 nm. A representative AFM image obtained from the DNA tile containing dried droplet area is shown on FIG. 2. […] The marked structure is measured as 64 nm, which is larger than the theoretical value of 40 nm. […] Considering the fact that the formation of DNA based structures is not always 100 percent efficient, this deviation can be acceptable.

B1: DNA tiles: tile shaped DNA origami structure prepared by hybridizing nine complementary oligonucleotides (SEQ ID NOS: 1-9) (nucleic acid)
DNA 1: AGGCACCATCGTAGGAAAATCTGCGTCAGCTCTCCGTACACCAGTGCTTCCATGCGAAGTAAAACGTTCCGATCACCAACGGAGTAAAACGATCTAACTGATAACTAGCACCTCTGCTCACGTGAGGAGTAAAACTTGCC
DNA 2: ATACCGGAGGCTTCCTGTACGGAGAGCTGACGCAGACCTACGATGGACACGCCG
DNA 3: ATGCAACCTGCCTGGCAAGACTCCTCACGTGAGCAGAGGACTACTCATCCGTTA
DNA 4: TTTCCGACTGAGCCCTGCTAGTTATCAGTTAGATCGACTCCGTTGGACGAACAG
DNA 5: ATAGCGCCTGATCGGAACGACTTCGCATGGAAGCACTGGACCGTTCTACCGATT
DNA 6: CTCGCAATCGGTAGAACGGTGGAAGCCTCCGGTATGCATG
DNA 7: AAAAAAAAAACGGCGTGTGGTTGCATAAAAAAAAAA
DNA 8: CGCTATAACGGATGAGTAGTGGGCTCAGTCGGAAAGAGCA
DNA 9: AAAAAAAAAACTGTTCGTGGCGCTATAAAAAAAAAA
modifications: Oligonucleotide 1; Oligonucleotide 2; Oligonucleotide 3; Oligonucleotide 4; Oligonucleotide 5; Oligonucleotide 6; Oligonucleotide 7; Oligonucleotide 8; Oligonucleotide 9
[1]
  Hydrodynamic size: approximately 50 nm
MDA-MB-231 cell line
  Cytotoxicity (cell viability): non-toxic
[2]
  Size of marked structure in AFM image: 64 nm
